The values that follow come from US20240132578A1.

What all share (test): cell-based or functional assay
The target in assay [1] is HIV-1 Env of pseudovirus MGRM-F1-015 (clade F) (HIV-1).
Assay [2] has as its target HIV-1 envelope glycoprotein (Env) of isolate MGRM-C-013 (HIV-1).
In assay [3] the target is HIV-1 envelope glycoprotein (Env) of isolate LAVI_C22 (HIV-1).
Assay [4] addresses HIV-1 VLGCA1 envelope glycoprotein (Env) on pseudovirus (HIV-1 (clade A)).
In assay [5] the target is HIV-1 Env of pseudovirus MGRM-F1-021 (clade F) (HIV-1).
For assay [6], the target named is HIV-1 envelope glycoprotein (Env) of isolate MGRM-C-015 (HIV-1).
Assay [7] has as its target HIV-1 envelope glycoprotein (Env) of isolate MGRM-C-002 (HIV-1).
Assay [8] concerns the target HIV-1 Env of isolate MGRM-D-022 (clade D pseudovirus) (HIV-1).
The target of assay [9] is HIV-1 Env of isolate MGRM-D-020 (clade D pseudovirus) (HIV-1).
The target of assay [10] is HIV-1 Env of pseudovirus MGRM-D-012 (HIV-1).
For assay [11], the target named is HIV-1 envelope glycoprotein (Env) of isolate MG RM-AG-001 (HIV-1).
Assay [12] has as its target HIV-1 envelope glycoprotein (Env) of isolate MGRM-AE-008 (HIV-1).
For assay [13], the target named is HIV-1 Env of pseudovirus MGRM-F1-020 (HIV-1).
For assay [14], the target named is HIV-1 envelope glycoprotein (Env) of isolate MG RM-A-001, subtype A (HIV-1).
The target in assay [15] is HIV-1 Env of isolate MGRM-F1-020 (pseudovirus) (HIV-1).
Assay [16] has as its target HIV-1 envelope glycoprotein (Env) of isolate MGRM-Chronic-B-011, on pseudovirus (HIV-1).
Assay [17] has as its target HIV-1 JR-CSF Env Q422A (HIV-1 (isolate JR-CSF)) (UniProt P20871).
Assay [18] addresses HIV-1 envelope glycoprotein (Env) of isolate VLGCA1, subtype A (HIV-1).
Assay [19] has as its target HIV-1 JR-CSF Env P313A (HIV-1 (isolate JR-CSF, clade B)) (UniProt P20871).
The target in assay [20] is HIV-1 93IN905 Env (HIV-1).
Assay [21] deals with HIV-1 Env of isolate MGRM-AG-013 (pseudovirus) (HIV-1).
The target of assay [22] is HIV-1 envelope glycoprotein (Env) of isolate MG RM-A-013, subtype A (HIV-1).
For a further assay, the target named is HIV-1 JRCSF Env (HIV-1) (UniProt P20871).
Assay [23] has as its target HIV-1 92UG024 Env (HIV-1).
For assay [24], the target named is HIV-1 Env of isolate MGRM-F1-013 (pseudovirus) (HIV-1).
In assay [25] the target is HIV-1 Env of isolate MGRM-F1-021 (HIV-1).
The target of assay [26] is HIV-1 Env of isolate 92WR009 (pseudovirus) (HIV-1).
In assay [27] the target is HIV-1 Env of isolate MGRM-A-013 (subtype A) (HIV-1).
Assay [28] deals with HIV-1 Env of isolate VLGCA1 (subtype A) (HIV-1).
Assay [29] has as its target HIV-1 Env of isolate MGRM-AG-002 (subtype AG) (HIV-1).
Assay [30] addresses HIV-1 Env of isolate MGRM-F1-014 (HIV-1).
The target of assay [31] is HIV-1 Env of isolate MGRM-A-007 (subtype A) (HIV-1).
Assay [32] has as its target HIV-1 Env of pseudovirus isolate MGRM-C-017 (clade C) (HIV-1).
Assay [33] deals with HIV-1 Env of pseudovirus isolate MGRM-C-022 (clade C) (HIV-1).
Assay [34] addresses HIV-1 Env of pseudovirus isolate MGRM-C-007 (clade C) (HIV-1).
The target of assay [35] is HIV-1 Env of isolate MGRM-Chronic-B-008 (HIV-1).
In assay [36] the target is HIV-1 Env of isolate MGRM-F1-018 (HIV-1).
In assay [37] the target is HIV-1 Env of isolate MGRM-D-029 (HIV-1).
Assay [38] deals with HIV-1 Env of isolate MGRM-G-017 (subtype G) (HIV-1).
The target of assay [39] is HIV-1 Env of pseudovirus isolate APV-6 (clade B) (HIV-1).
Assay [40] has as its target HIV-1 Env of isolate 98CN006 (HIV-1).
Assay [41] has as its target HIV-1 Env of isolate MGRM-C-025 (subtype C), on pseudovirus (HIV-1).
In assay [42] the target is HIV-1 Env of isolate MG RM-A-010 (pseudovirus) (HIV-1).
Assay [43] concerns the target HIV-1 Env of isolate MGRM-G-027 (subtype G) (HIV-1).
The target of assay [44] is HIV-1 Env of isolate MG RM-A-013 (pseudovirus) (HIV-1).
For assay [45], the target named is HIV-1 Env of isolate CMU02 (pseudovirus) (HIV-1).

PGT-144 (4970_K22) (antibody), sequence (VH): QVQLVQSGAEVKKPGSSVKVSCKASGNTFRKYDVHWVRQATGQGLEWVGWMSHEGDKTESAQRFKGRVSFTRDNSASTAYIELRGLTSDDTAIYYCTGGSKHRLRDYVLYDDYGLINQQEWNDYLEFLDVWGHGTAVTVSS
PGT-144 (4970_K22) (antibody), sequence (VL): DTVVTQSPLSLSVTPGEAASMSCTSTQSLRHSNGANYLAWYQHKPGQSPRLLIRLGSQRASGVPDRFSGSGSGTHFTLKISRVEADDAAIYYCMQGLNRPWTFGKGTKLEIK
PGT-142 (4995_E20) (antibody), sequence (VH): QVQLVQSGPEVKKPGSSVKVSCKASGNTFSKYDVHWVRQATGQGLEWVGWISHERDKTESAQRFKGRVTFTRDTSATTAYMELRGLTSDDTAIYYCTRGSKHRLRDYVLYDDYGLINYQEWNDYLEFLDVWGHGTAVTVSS
PGT-142 (4995_E20) (antibody), sequence (VL): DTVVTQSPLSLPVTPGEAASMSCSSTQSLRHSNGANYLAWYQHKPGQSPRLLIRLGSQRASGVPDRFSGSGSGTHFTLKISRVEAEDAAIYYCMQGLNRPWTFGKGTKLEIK
PGT-141 (4964_G22; 4993_K13) (antibody), sequence (VH): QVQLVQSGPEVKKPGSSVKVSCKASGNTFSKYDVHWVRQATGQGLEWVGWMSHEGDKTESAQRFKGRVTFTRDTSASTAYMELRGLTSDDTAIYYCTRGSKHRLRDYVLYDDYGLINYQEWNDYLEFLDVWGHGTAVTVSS
PGT-145 (4995_P16) (antibody), sequence (VH): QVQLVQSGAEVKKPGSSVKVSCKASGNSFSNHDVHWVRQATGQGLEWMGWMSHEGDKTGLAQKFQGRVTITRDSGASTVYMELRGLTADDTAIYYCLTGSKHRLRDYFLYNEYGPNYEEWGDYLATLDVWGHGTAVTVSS
PGT-145 (4995_P16) (antibody), sequence (VL): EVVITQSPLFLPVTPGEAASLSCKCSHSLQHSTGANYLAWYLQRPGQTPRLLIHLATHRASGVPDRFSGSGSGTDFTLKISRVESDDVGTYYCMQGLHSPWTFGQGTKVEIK
PGT-143 (4980_N08) (antibody), sequence (VH): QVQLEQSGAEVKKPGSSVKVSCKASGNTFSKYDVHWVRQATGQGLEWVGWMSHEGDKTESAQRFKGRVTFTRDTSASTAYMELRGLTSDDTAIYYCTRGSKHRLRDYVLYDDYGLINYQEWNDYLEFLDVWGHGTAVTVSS
PGT-143 (4980_N08) (antibody), sequence (VL): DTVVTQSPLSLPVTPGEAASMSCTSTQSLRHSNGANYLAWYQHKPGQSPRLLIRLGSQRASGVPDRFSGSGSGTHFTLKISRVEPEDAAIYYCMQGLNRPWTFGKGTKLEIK

Turning to 4E10 (antibody), the IC50 in assay [1] was 0.53 µg/mL; in [5], 1.87 µg/mL. The IC50 (µg/ml), pseudovirus neutralization in [2] was 2.1 µg/mL; in assay [3], 2.02 µg/mL; in assay [4], 4.58 µg/mL; in [6], 2.52 µg/mL; in assay [7], 18.2 µg/mL. The values for the IC50, pseudovirus neutralization in assay [8] and in assay [9] were 16.9 µg/mL and > 50 µg/mL, respectively.
Turning to PGT-144 (4970_K22) (antibody), the IC50, pseudovirus neutralization is > 50 µg/mL in [10] and 8.93 µg/mL in assay [13]. Besides, the IC50 is > 50 µg/mL in [11] and 3.55 µg/mL in assay [12].
For the substance PGT-142 (4995_E20) (antibody), the IC50, pseudovirus neutralization was > 50 µg/mL in assay [10] and 0.824 µg/mL in [13]. In addition, the results for the IC50 in assay [11] and in [12] were 12.4 µg/mL and 0.08 µg/mL, respectively.
For the substance 4858_P08 (PGT-123) (antibody), the IC50, pseudovirus neutralization in assay [14] is > 50 µg/mL; in [16] it was > 50 µg/mL; in assay [18], > 50 µg/mL; in assay [20], 0.0071 µg/mL; in assay [22], 0.565 µg/mL; with HIV-1 JRCSF Env (HIV-1) it was 0.0423 µg/mL. For the same substance, in [23], the IC50, pseudovirus neutralization is > 10 µg/mL. The IC50 (µg/mL), pseudovirus neutralization came to 0.051 µg/mL in assay [15], 3.37 µg/mL in assay [21] and 0.08 µg/mL in assay [24]. The same substance had a Fold IC50 increase relative to wild-type (pseudovirus neutralization) in [17] of 0.8 fold. Further, the Fold IC50 increase relative to wild-type in [19] turned out to be 0.2 fold.
Turning to 5145_B14 (PGT-127) (antibody), the IC50, pseudovirus neutralization was > 50 µg/mL in assay [14], 0.297 µg/mL in assay [16], > 50 µg/mL in [18] and 0.029 µg/mL in assay [22]. Further, the IC50 (µg/mL), pseudovirus neutralization in assay [15] is > 50 µg/mL; in [21], 0.018 µg/mL; in [24], > 50 µg/mL. This substance had a Fold IC50 increase relative to wild-type (pseudovirus neutralization) in [17] of 0.1 fold. For the same substance, the Fold IC50 increase relative to wild-type in [19] stood at 1.3 fold.
5141_B17 (PGT-126) (antibody): the IC50, pseudovirus neutralization in [14] was > 50 µg/mL; in assay [16], 0.108 µg/mL; in assay [18], > 50 µg/mL; in [20] it was 0.0194 µg/mL; in assay [22] it was 0.006 µg/mL; in the assay with HIV-1 JRCSF Env (HIV-1), 0.0061 µg/mL. Further, in assay [23], the IC50, pseudovirus neutralization is > 10 µg/mL. Also, the IC50 (µg/mL), pseudovirus neutralization in assay [15] was > 50 µg/mL; in assay [21], 0.008 µg/mL; in [24], > 50 µg/mL. In addition, the Fold IC50 increase relative to wild-type (pseudovirus neutralization) in assay [17] is 1.1 fold. In addition, the Fold IC50 increase relative to wild-type in assay [19] was determined as 0.4 fold.
Regarding PGT-145 (4995_P16) (antibody), the values for the IC50, pseudovirus neutralization in [10] and in assay [13] were > 50 µg/mL and 0.816 µg/mL, respectively. The IC50 in [11] was determined as 0.164 µg/mL; in assay [12], 1.46 µg/mL.
Turning to PGT-143 (4980_N08) (antibody), the results for the IC50, pseudovirus neutralization in assay [10] and in [13] were > 50 µg/mL and 0.98 µg/mL, respectively. Further, the IC50 in assay [11] was 18.9 µg/mL; in assay [12], 0.135 µg/mL.
Consider 5123_A06 (PGT-125) (antibody), for which the IC50, pseudovirus neutralization in assay [14] was found to be 12.4 µg/mL; in assay [16], 3.23 µg/mL; in assay [18] it was 0.078 µg/mL; in assay [20], 0.0137 µg/mL; in assay [22] it was 0.014 µg/mL; in the assay with HIV-1 JRCSF Env (HIV-1), 0.006 µg/mL. For the same substance, in [23], the IC50, pseudovirus neutralization was > 10 µg/mL. For the same substance, the IC50 (µg/mL), pseudovirus neutralization in [15] was > 50 µg/mL; in assay [21] it was 0.004 µg/mL; in [24], > 50 µg/mL. For the same substance, in [17], the Fold IC50 increase relative to wild-type (pseudovirus neutralization) worked out at 1.2 fold. For the same substance, in assay [19], the Fold IC50 increase relative to wild-type came out at 0.3 fold.
5136_H01 (PGT-131) (antibody): the IC50 (µg/mL), pseudovirus neutralization in [25] was > 50 µg/mL; in [26], 3.12 µg/mL; in assay [30], > 50 µg/mL; in assay [35], > 50 µg/mL; in assay [36], > 50 µg/mL; in assay [37] it was > 50 µg/mL. In [17], this substance gave a Fold IC50 increase relative to wild-type (pseudovirus neutralization) of 1.9 fold. The IC50, pseudovirus neutralization in [27] was > 50 µg/mL; in assay [28], > 50 µg/mL; in assay [29], > 50 µg/mL; in assay [31], > 50 µg/mL; in [32], > 50 µg/mL; in assay [33] it was 0.78 µg/mL. For the same substance, in assay [34], the IC50, pseudovirus neutralization was > 50 µg/mL. This substance also registered a Fold IC50 increase relative to wild-type in [19] of 0.52 fold.
Consider VRC01 (antibody), for which the IC50, pseudovirus neutralization turned out to be 0.216 µg/mL in assay [10], 1.81 µg/mL in assay [39] and 1.89 µg/mL in assay [13]. Besides, the IC50 (µg/mL), pseudovirus neutralization in assay [38] worked out at 0.124 µg/mL; in assay [40], 0.644 µg/mL; in [43], 0.36 µg/mL. This substance also returned an IC50, single-round pseudovirus neutralization in assay [41] of 2.36 µg/mL. Also, the IC50 was determined as 0.228 µg/mL in [11] and 1.72 µg/mL in assay [12]. The results for the IC50 (µg/mL), single-round pseudovirus neutralization in [42], in [44] and in [45] were 0.325 µg/mL, 0.152 µg/mL and 0.515 µg/mL, respectively.
Regarding 5147_N06 (PGT-130) (antibody), the IC50 (µg/mL), pseudovirus neutralization was > 50 µg/mL in assay [25]; 1.27 µg/mL in assay [26]; 11.8 µg/mL in [30]; 5.18 µg/mL in assay [35]; > 50 µg/mL in [36]; > 50 µg/mL in [37]. Besides, the Fold IC50 increase relative to wild-type (pseudovirus neutralization) in [17] came out at 1 fold. For the same substance, the IC50, pseudovirus neutralization in assay [27] is > 50 µg/mL; in [20], 0.0182 µg/mL; in assay [28], > 50 µg/mL; in assay [29] it was > 50 µg/mL; in assay [31], > 50 µg/mL; in the assay with HIV-1 JRCSF Env (HIV-1) it was 0.0089 µg/mL. Also, the IC50, pseudovirus neutralization in assay [32] was > 50 µg/mL; in assay [23] it was > 10 µg/mL; in [33] it was 0.127 µg/mL; in [34] it was > 50 µg/mL. This substance came in with a Fold IC50 increase relative to wild-type in assay [19] of 0.3 fold.
PGT-141 (4964_G22; 4993_K13) (antibody): the IC50, pseudovirus neutralization is > 50 µg/mL in [10] and 1.15 µg/mL in assay [13]. The IC50 amounted to 18 µg/mL in [11] and 0.101 µg/mL in assay [12].
